Laboratory results taken from patent US20050244966A1, “Insulin producing cells” (Ramot At Tel Aviv University Ltd., priority 2003, published 2005).

What was measured:
FH-B-TPN cells [1] = assay: Insulin content of FH-B-TPN cells (RIA/ELISA of cell extracts); assay type: cell-based, human; conditions: for Insulin content: RIA; for Fold increase (insulin content): vs CM
Protocol: FH cells were isolated and cultured as described (19), in Dulbecco's modified Eagle's medium containing 25 mM glucose and supplemented with 10% fetal bovine serum (FBS), 100 U/ml penicillin, 100 μg/ml streptomycin, 5 μM hydrocortisone, and 5 μg/ml insulin. A subclone of FH cells that was stably transduced with hTERT, designated FH-B-hTERT (FH-B), was cultured in the same medium, as described (20). FH-B cells transduced with the Pdx1 gene (see below), designated FH-B-TPN cells, were maintained in the same culture medium, with the exception of hydrocortisone and insulin (complete medium CM). For incubation in serum-free medium, the cells were placed in DMEM containing antibiotics, in the presence of 100 ng/ml insulin, 55 ng/ml transferrin, and 50 pg/ml selenium (ITS, Sigma). For all experiments activin A (Cytolab/PreproTech Asia, Rehovot, Israel) was added at a final concentration of 4 nM. except for those aimed at promoting differentiation of FH-B-TPN cells towards the beta-cell phenotype. There, addition of Act-A, as well as betacellulin (BTC, R&D Systems, Minneapolis, Minn.), nicotinamide (NA), exendin-4, and hepatocyte growth factor (HGF) (the last 3 compounds from Sigma-Aldrich) was at concentrations detailed herein below.
(§1) Insulin secretion from FH-B-TPN cells was measured by static incubation as previously described (2). Cells were plated in 24-well plates at 10^5 cells per well. The cells were preincubated for 1 hour in Krebs-Ringer buffer (KRB), followed by incubation for the indicated period of time in KRB containing 0.5 mM 1-isobutyl 3-methylxanthine (IBMX) and glucose at various concentrations. The cells were then extracted in acetic acid, and the amount of insulin in the buffer and cell extract was determined by radioimmunoassay (RIA) using the INSIK-5 kit (DiaSorin, Vercelli, Italy) according to the manufacturer. This assay has <20% crossreactivity with proinsulin. In addition, insulin content was determined using an ELISA kit (Diagnostic Systems Laboratories, Webster, Tex. or (Mercodia, Uppsala, Sweden), which recognizes only mature insulin. Insulin content was normalized to total cellular protein, measured by the Bio-Rad (Hercules, Calif.) Protein Assay kit. Human C-peptide in the cell extract was determined using a RIA kit (DiaSorin, Vercelli, Italy) or ELISA kit (Mercodia, Uppsala, Sweden) according to the manufacturers.

FH-B-TPN cells [2] = assay: RT-PCR analysis of gene expression in FH-B-TPN cells; assay type: cell-based, human; conditions: 4 nM activin A; FIG. 7
Protocol: Total RNA was extracted from cultured cells, mature human hepatocytes (obtained from Incara Cell Technologies, North Carolina), and human pancreatic islets (obtained through the Juvenile Diabetes Research Foundation Islet Distribution Program), using commercial kits (High Pure RNA isolation kit, Roche Molecular Biochemicals, Mannhein, Germany; Trizol Reagent, Invitrogen Life Technologies, Carlsbad, Calif.).
Specific transcripts were analyzed with Promega (Madison, Wis.) RT-PCR kit or GeneAmp Gold RNA PCR kit (Perkin Elmer Corp., Indianapolis, Ind.) or Superscript III RT-PCR (Invitrogene Life Technologies, Carlsbad, Calif.) according to the manufacturers. The absence of DNA contamination in RNA samples was confirmed with PCR primers flanking an intron. cDNA was amplified for 40 cycles (94° C. for 45 sec; annealing under conditions indicated in Table 1 below for 45 sec; 72° C. for 40 sec), using the primer pairs listed in Table 1 below.
PCR products were separated by electrophoresis in 1.5%-2.5% agarose gels and visualized by ethidium bromide staining.

FH-B-TPN cells [3] = assay: Immunofluorescence analyses of protein expression in FH-B-TPN cells; assay type: cell-based, human; conditions: 6 days in serum-free medium with ITS and activin A; FIG. 8
Protocol: FH-B-TPN cells plated in 6-well plates on sterilized coverslips were fixed in 4% paraformaldehyde. For cytoplasmic antigens, cells were blocked for 10 min at room temperature in 5% bovine serum albumin, 5% FBS and 0.1% Triton X-100, and stained with the antibodies as detailed in Table 2 diluted in blocking solution, for 1 hour at room temperature.
For immunostaining of nuclear antigens, cells were permeabilized in 0.25% NP40 for 10 min at room temperature prior to blocking, followed by incubation with the primary antibody as detailed in Table 2 hereinabove. The stained cells were photographed under a Zeiss confocal microscope. FH-B, Cos7 or 293T cells were used as negative controls. Nuclei were visualized with DAPI (Roche) staining for 5 minutes at room temperature. Kidney tissue was fixed in 4% paraformaldehyde, embedded in paraffin, and sectioned. Sections were rehydrated, washed in PBS, and unmasked (if needed) in Unmasking Solution (Vector Laboratories, Burlingame, Calif.) according to the manufacturer. Sections were blocked for 2 h in 0.2% Tween 20 and 0.2% gelatin, incubated overnight at 4° C. with primary antibodies and 2 h at room temperature with the secondary antibodies as detailed in Table 2 hereinabove, stained with DAPI, and mounted. BrdU staining was performed as previously described (28b).

FH-B-TPN cells [4] = assay: Cell doubling time by cell counting; TUNEL assay; assay type: cell-based, human
Excerpt: The cell doubling time, as determined by cell counting, was not affected by Act-A treatment in CM. […] No apoptotic cells were detected using a TUNEL assay under any of the conditions (data not shown).

FH-B-TPN cells [5] = assay: Human C-peptide in cell extract and culture medium (ELISA); assay type: cell-based; conditions: SFM (6 d) then 3 nM Act-A in SFM (3 d)
Protocol: as §1

[6] = FH-B-TPN cells, 4 nM in CM (6 d)
[7] = SFM (6 d) then 3 nM Act-A in SFM (3 d)

B1: betacellulin (protein, UniProt P35070 32-111, looked up)
Betacellulin: DGNSTRSPETNGLLCGDPEENCAATTTQSKRKGHFSRCPKQYKHYCIKGRCRFVVAEQTPSCVCDEGYIGARCERVDLFY
notes: betacellulin (R&D Systems), soluble factor
- Insulin content (FH-B-TPN cells [1]; [6]): 264 ± 7 ng/10^6 cells
- Fold increase (insulin content) (FH-B-TPN cells [1]; [6]): 1.4

B2: activin A (protein, UniProt P08476 311-426, looked up)
Inhibin beta A chain: GLECDGKVNICCKKQFFVSFKDIGWNDWIIAPSGYHANYCEGECPSHIAGTSGSSLSFHSTVINHYRMRGHSPFANLKSCCVPTKLRPMSMLYYDDGQNIIKKDIQNMIVEECGCS
- Insulin content compared with serum-free medium without activin A (FH-B-TPN cells [1]; 6 days in serum-free medium supplemented with both ITS and activin A): further doubling
- Insulin content (FH-B-TPN cells [1]; [6]): 729 ± 55 ng/10^6 cells
- Insulin content (FH-B-TPN cells [1]; FH-B-TPN cells, Act-A 3 nM in CM (3 d) + CM (6 d), mean ± SD (n = 3)): 1661 ± 319 ng/10^6 cells
- Fold increase (insulin content) (FH-B-TPN cells [1]; FH-B-TPN cells, Act-A 3 nM in CM (3 d) + CM (6 d)): 8.8
- Insulin content (FH-B-TPN cells [1]; FH-B-TPN cells, Act-A 3 nM in CM (3 d) + SFM (6 d), mean ± SD (n = 3)): 1493 ± 229 ng/10^6 cells
- Fold increase (insulin content) (FH-B-TPN cells [1]; FH-B-TPN cells, Act-A 3 nM in CM (3 d) + SFM (6 d)): 7.9
- Insulin content (FH-B-TPN cells [1]; FH-B-TPN cells, Act-A 3 nM in CM (3 d), mean ± SD (n = 3)): 1399 ± 269 ng/10^6 cells
- Fold increase (insulin content) (FH-B-TPN cells [1]; FH-B-TPN cells, Act-A 3 nM in CM (3 d)): 7.4
- Insulin content (FH-B-TPN cells [1]; FH-B-TPN cells, Act-A 3 nM in SFM (3 d), mean ± SD (n = 3)): 2143 ± 179 ng/10^6 cells
- Fold increase (insulin content) (FH-B-TPN cells [1]; FH-B-TPN cells, Act-A 3 nM in SFM (3 d)): 11.4
- Concentration giving maximal (optimal) increase in insulin content (FH-B-TPN cells [1]; FH-B-TPN cells, Act-A 1-8 nM in regular medium (CM) for 6 days, FIG. 9): 3 nM
- Fold increase (insulin content) (FH-B-TPN cells [1]; FH-B-TPN cells, SFM (6 d) + Act-A 3 nM in SFM (3 d)): 33
- Increase over insulin content of cells incubated 9 days in SFM without Act-A (FH-B-TPN cells [1]; [7]): 2.6 fold
- Insulin content as share of the cellular protein content (FH-B-TPN cells [1]; [7]): 6%
- Insulin content relative to normal human pancreatic islets (FH-B-TPN cells [1]; [7]): about 60%
- Share of stored insulin in the form of mature protein (ELISA vs RIA) (FH-B-TPN cells [1]; [7]): 95%
- Glucagon mRNA (FH-B-TPN cells [2]): disappeared after an overnight treatment
- PAX4 and GLUT2 mRNAs (FH-B-TPN cells [2]): appeared following 3 days of treatment
- PP staining (FH-B-TPN cells [3]): disappeared
- Percent of cells stained for GK, PC1/3, and PC2 (FH-B-TPN cells [3]): increase
- Percent of cells stained for NGN3 (FH-B-TPN cells [3]): significant decrease
- Percentage of cells stained for ISL1, NKX6.1, and NKX2.2 (FH-B-TPN cells [3]): significant increase
- Cell doubling time compared with cells growing in CM (FH-B-TPN cells [4]): not affected
- Human C-peptide secreted into the culture medium (FH-B-TPN cells [5]): 43.5±1.3 ng/10^6 cells
- Human C-peptide levels in cells (FH-B-TPN cells [5]; ELISA): 5153±180 ng/10^6 cells
